Source: US20240409647A1 (SINOMAB BIOSCIENCE, published 2024)

Assays:
[1] = molecular target: T1, human IL-17RB protein (recombinant, R&D systems) (human); assay: ELISA, coated receptor; SM17 at 0.4 µg/mL; well 2
T1 construct: Bought protein; also called hIL17RB
T1 sequence (Q9NRM6 whole entry, looked up): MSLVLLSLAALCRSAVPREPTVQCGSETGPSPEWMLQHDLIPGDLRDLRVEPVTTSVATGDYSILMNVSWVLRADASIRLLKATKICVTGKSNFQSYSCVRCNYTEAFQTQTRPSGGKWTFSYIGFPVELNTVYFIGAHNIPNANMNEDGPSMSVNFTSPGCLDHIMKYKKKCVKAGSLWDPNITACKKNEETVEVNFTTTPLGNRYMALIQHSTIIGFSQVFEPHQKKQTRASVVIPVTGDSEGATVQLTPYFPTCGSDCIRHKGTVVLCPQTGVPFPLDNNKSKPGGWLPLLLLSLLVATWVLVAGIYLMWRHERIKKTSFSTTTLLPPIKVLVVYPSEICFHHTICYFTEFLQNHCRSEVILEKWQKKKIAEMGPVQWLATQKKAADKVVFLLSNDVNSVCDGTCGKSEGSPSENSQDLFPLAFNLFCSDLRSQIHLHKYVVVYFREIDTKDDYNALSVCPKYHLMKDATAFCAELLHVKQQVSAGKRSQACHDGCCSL

[2] = molecular target: T2, human IL-17 receptor subunit A (human, UniProt Q96F46 33-320); assay: ELISA, coated receptor; SM17 at 0.4 µg/mL; well 2
T2 construct: also called IL17RA; hIL17RA

[3] = molecular target: T3, human IL-17 receptor subunit C (human, UniProt Q8NAC3-2 21-467, limits assumed); assay: ELISA, coated receptor; SM17 at 0.4 µg/mL; well 2
T3 construct: also called IL17RC; hIL17RC
T3 sequence (looked up): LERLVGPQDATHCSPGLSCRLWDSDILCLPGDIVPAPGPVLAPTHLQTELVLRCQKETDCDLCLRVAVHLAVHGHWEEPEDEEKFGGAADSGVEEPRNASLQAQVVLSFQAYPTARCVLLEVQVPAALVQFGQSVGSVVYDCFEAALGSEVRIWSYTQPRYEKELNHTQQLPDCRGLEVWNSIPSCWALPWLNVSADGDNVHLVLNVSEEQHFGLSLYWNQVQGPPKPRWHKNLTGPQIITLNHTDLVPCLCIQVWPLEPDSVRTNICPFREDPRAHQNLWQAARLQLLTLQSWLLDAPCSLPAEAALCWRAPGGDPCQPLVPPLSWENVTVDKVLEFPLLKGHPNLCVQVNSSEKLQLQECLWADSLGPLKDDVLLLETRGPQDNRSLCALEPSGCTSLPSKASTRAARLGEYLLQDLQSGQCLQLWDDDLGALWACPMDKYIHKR

[4] = molecular target: T4, human IL-17 receptor subunit D (human, UniProt Q8NFM7 28-299, limits assumed); assay: ELISA, coated receptor; SM17 at 0.4 µg/mL; well 2
T4 construct: also called IL17RD; hIL 17RD
T4 sequence (looked up): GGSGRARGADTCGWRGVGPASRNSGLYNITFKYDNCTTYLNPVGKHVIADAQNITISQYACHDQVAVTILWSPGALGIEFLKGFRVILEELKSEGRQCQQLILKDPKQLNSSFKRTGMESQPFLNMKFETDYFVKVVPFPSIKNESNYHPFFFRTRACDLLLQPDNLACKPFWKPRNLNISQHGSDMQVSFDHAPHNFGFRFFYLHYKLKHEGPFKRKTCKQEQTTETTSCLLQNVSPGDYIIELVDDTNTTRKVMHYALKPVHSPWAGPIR

[5] = molecular target: T5, human IL-17 receptor subunit E (human, UniProt Q8NFR9 24-454, limits assumed); assay: ELISA, coated receptor; SM17 at 0.4 µg/mL; well 2
T5 construct: also called hIL17RE
T5 sequence (looked up): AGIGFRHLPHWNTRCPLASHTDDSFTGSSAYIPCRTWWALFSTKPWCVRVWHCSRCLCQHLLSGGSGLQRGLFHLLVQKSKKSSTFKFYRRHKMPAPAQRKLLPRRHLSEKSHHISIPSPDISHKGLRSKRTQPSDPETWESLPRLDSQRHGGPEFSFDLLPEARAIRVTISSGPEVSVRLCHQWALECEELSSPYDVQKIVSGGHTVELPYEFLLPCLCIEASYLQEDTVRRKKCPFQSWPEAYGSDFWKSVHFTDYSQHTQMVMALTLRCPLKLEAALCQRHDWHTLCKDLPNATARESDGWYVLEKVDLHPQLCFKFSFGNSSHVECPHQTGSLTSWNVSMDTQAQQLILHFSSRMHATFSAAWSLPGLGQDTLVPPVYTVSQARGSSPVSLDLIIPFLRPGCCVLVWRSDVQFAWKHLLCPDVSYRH

[6] = molecular target: T1, human IL-17RB protein (recombinant, R&D …); assay: ELISA, coated receptor; SM17 at 0.08 µg/mL; well 2
[7] = molecular target: T2, human IL-17 receptor subunit A; assay: ELISA, coated receptor; SM17 at 0.08 µg/mL; well 2
[8] = molecular target: T3, human IL-17 receptor subunit C; assay: ELISA, coated receptor; SM17 at 0.08 µg/mL; well 2
[9] = molecular target: T4, human IL-17 receptor subunit D; assay: ELISA, coated receptor; SM17 at 0.08 µg/mL; well 2
[10] = molecular target: T5, human IL-17 receptor subunit E; assay: ELISA, coated receptor; SM17 at 0.08 µg/mL; well 2
[11] = molecular target: T1, human IL-17RB protein (recombinant, R&D …); assay: ELISA, coated receptor; SM17 at 0.016 µg/mL; well 2
[12] = molecular target: T5, human IL-17 receptor subunit E; assay: as above
[13] = molecular target: T6, human IL-33 (R&D systems) (human, UniProt O95760 112-270); assay: ELISA on coated human IL-33 (2 ug/mL), goat anti-human F(ab')2-HRP [panel 'Binding affinity to human IL-33']
T6 sequence (looked up): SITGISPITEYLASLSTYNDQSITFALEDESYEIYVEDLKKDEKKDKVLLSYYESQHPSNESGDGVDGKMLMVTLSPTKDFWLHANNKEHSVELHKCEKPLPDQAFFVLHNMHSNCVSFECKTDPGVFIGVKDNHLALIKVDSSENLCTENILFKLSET

- OD 450 nm Absorption [1]: 1.31 OD450
- OD 450 nm Absorption [2]: 0.22 OD450
- OD 450 nm Absorption [3]: 0.18 OD450
- OD 450 nm Absorption [4]: 0.08 OD450
- OD 450 nm Absorption [5]: 0.05 OD450
- OD 450 nm Absorption [6]: 0.64 OD450
- OD 450 nm Absorption [7]: 0.06 OD450
- OD 450 nm Absorption [8]: -0.02 OD450
- OD 450 nm Absorption [9]: 0.01 OD450
- OD 450 nm Absorption [10]: 0 OD450
- OD 450 nm Absorption [11]: 0.3 OD450
- OD 450 nm Absorption [12]: -0.04 OD450
- binding result [13]: no binding
B1: SM17 (antibody, human IgG4 S228P, kappa, V domains shown)
VH: QVQLVQSGAEVKKPGASVKVSCKASGYTFISYWMNWVRQAPGQGLEWMGRIDPYDSEIQYNQKFKDRVTMTRDTSISTAYMELSRLRSDDTAVYYCARSGGFDWFAYWGQGTLVTVSS
VL: DIQMTQSPSSLSASVGDRVTITCRASENINSNLAWYQQKPGKAPKLLLYDVTNLADGVPSRFSGSGSGTDYTLTISSLQPEDFATYYCQHFWGPPYTFGGGTKVEIKR
notes: other paragraphs and claim 15 call the same entries VH and VL; also called humanized anti-IL17RB monoclonal antibody
